# ± gives the uncertainty stated by the source.
# Assay: amyloid nucleation score (Sup35N fusion, yeast selection) (log enrichment); library NNK2; higher = more nucleation; inactive = no reads after selection
# Method in brief: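 Sup35N fusions to peptides of 20 random codons were expressed in psi-negative yeast, induced 24 hours with 100 μM copper sulfate, and grown 7 days at 30°C on medium lacking adenine and uracil. Input and output plasmid inserts were sequenced by Illumina. The nucleation score is the DiMSum log enrichment of output over input reads, centred on the mode score of non-aggregating sequences. Sequences with under 100 input reads were excluded.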
row,Substance,amyloid nucleation score
1,NIRNDVLNQLT,2.11 ± 0.14
2,VCWLLGSGFWAS,inactive
3,GCTRE,1.36 ± 0.53
4,IKTGSGVARVGYFLC,0.42 ± 0.47
5,ASLALYRITRVGICYIRRLR,-0.839 ± 0.78
6,GISAHHALVTLMLMAIVGHY,1.55 ± 0.55
7,ISVQATGASESETIPIQTGY,2.13 ± 0.11
8,YNLCSSCNIQWWCSRMHQQK,8.858 ± 0.055
9,VSIRDVVGQYSINRVICRSY,-0.774 ± 0.54
10,DDYVWCSYRLMFKSSHEALL,-1.24 ± 1.1
11,LVFRLDFDYVRLCPNLANTL,0.192 ± 1
12,LSMVDCGASDGLEQVFGLAG,0.14 ± 0.33
13,KLMPLTTIPDEVWYFIGYRL,-0.501 ± 0.32
14,NADGYSLMQRSNFSQSNGYL,inactive
15,GKSYPPHLHHDNNKAYRVLP,-0.178 ± 1.1
16,VLQDMYYKSVKKLQARSKDF,inactive
17,PPVVVSTSIWSRLCSYV,0.151 ± 0.35
18,RIVQYIELRFTYQRKYNGAG,3.02 ± 0.057
19,LDLLKNCCTASMPGSLVVGR,0.369 ± 0.65
20,HLVGEKSSKRDSGGRGPRRY,-0.32 ± 0.61
21,NIVGHAHRLFNRMRCLRLYQ,-0.439 ± 0.32
22,RMFWISNKVSIPGPGLEAGN,inactive

row,Substance,amyloid nucleation score
1,VFSFRGLFGFIPMVPYWYAI,inactive
2,HKCRWSGPAVGSQGKDVIIL,1.12 ± 0.44
3,NHYSSVMKVFCDRFTSAIGG,-0.946 ± 0.63
4,LIVSPCN,-0.059 ± 0.26
5,YPDIYGFEKRIDSPSNLGML,0.433 ± 0.6
6,HPWSFLKVGVQFVGFWDSPY,0.366 ± 0.19
7,YSELIVTVIYKSTSSVRISC,-0.285 ± 0.33
8,HFCYKMRLKDDCVCFKGYTI,4.03 ± 0.058
9,SISSVLCYWYKNHKNDIVSG,inactive
10,MNSFQTRGSVPRRNPKIRAS,0.998 ± 0.74
11,YGVYGHFKTLGNLTNRDVVS,-1.36 ± 0.75
12,GNLWGYECVYINKQICGSSR,3.49 ± 0.05
13,MCRRANGRVLGP,5.562 ± 0.042
14,WMWDFFYTGLLMRTF,inactive
15,VRWIKVFHFP,-0.784 ± 0.76
16,LSLLFH,inactive
17,IHRILCHGVRASMLGGSVAL,0.067 ± 0.79
18,CCSISTDLCDKYFVTFCLLS,inactive
19,LPLWLIDIALFLSFCIVGQS,-0.369 ± 1.1
20,LSSTRDR,-1.24 ± 0.48
21,LGLMLIDLIWLRRYIYSWVR,0.338 ± 0.34
22,SLSRFCMNLCRFSGGIQSVR,-1.34 ± 0.42

row,Substance,amyloid nucleation score
1,ETGSIVVKMLPSRWGSLRLV,3.19 ± 0.11
2,LGSVGFAVWG,0.17 ± 0.46
3,LGWQPNMWLISFISVSY,-0.81 ± 0.64
4,REDLLRNKTLL,-0.858 ± 0.44
5,YNAVA,inactive
6,SIRRLTR,-0.172 ± 0.49
7,RLLLRALYNPEYSRTQC,-1.43 ± 0.64
8,TFFYCGPRKLFYKI,-0.387 ± 1.1
9,LTKGRSFCVNPFHITVDGQE,-0.761 ± 0.23
10,KELDLDFRCFQYYNVVVVPQ,2.33 ± 0.091
11,NDGIFDSTRVVETMCLRSSP,-0.129 ± 1.1
12,AVWVRLTFDYWGRCTILGTV,inactive
13,NMLVVFNAPYYSL,7.811 ± 0.049
14,AQNKNWQSFRMFPVVLAMVG,0.178 ± 0.77
15,SAYLPSHLYTAFEPHGLVST,0.933 ± 0.2
16,DVWIFMTECGDAV,0.743 ± 0.81
17,QKDLVSRGQYEVIVDSGTLG,4.446 ± 0.035
18,LPTIGVWLTRPRVCFLSYSV,0.045 ± 0.63
19,FHVTVRFRSYCIFDPRGCVI,1.81 ± 0.21
20,FYVLWQLVVYAMVMYWDTYS,inactive
21,SDGNELDWIAGLTMYRGVER,0.319 ± 0.8
22,GYASTSKAKISAIRAIRP,0.339 ± 0.31

row,Substance,amyloid nucleation score
1,ARDCYEDDHKSKSARTVEHT,0.232 ± 0.31
2,EVGKNRTSHIL,-0.134 ± 0.55
3,FVCFPRSVAQRDDSSGVGGN,-0.121 ± 1.1
4,KFLGYQLPPRDSSSGTF,0.066 ± 0.27
5,YYCRCYSGVLVTRAYQGNPE,-0.168 ± 1.1
6,TPPTHWSFFMIWARCEKLGG,-1.01 ± 0.64
7,LSNRSYFTSTAWYEKNRPA,-0.293 ± 0.26
8,LNYALLVEFCLCLNPDNNSS,8.57 ± 0.055
9,SQITYVFYFRRGFIMLMWWE,-0.323 ± 0.79
10,LWKLYLTVSRNLAVGISGGL,inactive
11,LLSVVKCACEMRTTKAVIGA,2.05 ± 0.35
12,SFSCFVCCDQHKSRGSVWHY,8.683 ± 0.076
13,FYLSFRVECLGRR,4.782 ± 0.045
14,DTGNMVSEKPGGILSDMGRI,inactive
15,CTFPALSLPGPVSTQQSSGQ,3.47 ± 0.06
16,RWMLIAE,1.03 ± 0.31
17,FLTLPFLPAHLKKPHKSLLR,-0.083 ± 0.56
18,CFTSWMRPRKSYLTDNRCIN,-0.55 ± 0.79
19,GTLPYDNRTTYAFYLRVCSL,inactive
20,HRCSKPSWKVCIEWCRSRCV,0.614 ± 0.45

# Source: the supplement of paper PMC12042874
